B1: FGF21 R159-R163 deleted and replaced by HE (SEQ ID NO: 150), Q9NSA1 29-209 (ligand)
chain: GHPIPDSSPLLQFGGQVRQRYLYTDDAQQTEAHLEIREDGTVGGAADQSPESLLQLKALKPGVIQILGVKTSRFLCQRPDGALYGSLHFDPEACSFRELLLEDGYNVYQSEAHGLPLHLPGNKSPHRDPAPHEFLPLPGLPPAPPEPPGILAPQPPDVGSSDPLSMVGPSQGRSPSYAS
B2: FGF21 A162Y (SEQ ID NO: 151), Q9NSA1 29-209 (ligand)
chain: GHPIPDSSPLLQFGGQVRQRYLYTDDAQQTEAHLEIREDGTVGGAADQSPESLLQLKALKPGVIQILGVKTSRFLCQRPDGALYGSLHFDPEACSFRELLLEDGYNVYQSEAHGLPLHLPGNKSPHRDPAPRGPYRFLPLPGLPPAPPEPPGILAPQPPDVGSSDPLSMVGPSQGRSPSYAS
B3: FGF21 D155L (SEQ ID NO: 124), Q9NSA1 29-209 (ligand)
chain: B2 chain with D128L, Y135A
B4: G-FGF21 with a leucine in position 174 (SEQ ID NO: 174), Q9NSA1 29-209 (ligand)
chain: B2 chain with Y135A, P147L
B5: FGF21 R163H (SEQ ID NO: 141), Q9NSA1 29-209 (ligand)
chain: B2 chain with Y135A, R136H
B6: FGF21 D155N (SEQ ID NO: 129), Q9NSA1 29-209 (ligand)
chain: B2 chain with D128N, Y135A
B7: FGF21 D155P (SEQ ID NO: 127), Q9NSA1 29-209 (ligand)
chain: B2 chain with D128P, Y135A
B8: G-FGF21 (SEQ ID NO: 3), without N-terminal tag, Q9NSA1 29-209 (ligand)
chain: B2 chain with Y135A
B9: FGF21 R154Q, D155K (SEQ ID NO: 131), Q9NSA1 29-209 (ligand)
chain: B2 chain with R127Q, D128K, Y135A
B10: FGF21 K150H, P152L (SEQ ID NO: 140), Q9NSA1 29-209 (ligand)
chain: B2 chain with K123H, P125L, Y135A
B11: FGF21 P152A, H153K, R154K, D155E, P156A, A157S, R159Q (SEQ ID NO: 133), Q9NSA1 29-209 (ligand)
chain: B2 chain with P125A, H126K, R127K, D128E, P129A, A130S, R132Q, Y135A
B12: FGF21 G202T (SEQ ID NO: 154), Q9NSA1 29-209 (ligand)
chain: B2 chain with Y135A, G175T
B13: FGF21 K150H (SEQ ID NO: 139), Q9NSA1 29-209 (ligand)
chain: B2 chain with K123H, Y135A
B14: FGF21 D155E (SEQ ID NO: 128), Q9NSA1 29-209 (ligand)
chain: B2 chain with D128E, Y135A
B15: FGF21 D155Y (SEQ ID NO: 126), Q9NSA1 29-209 (ligand)
chain: B2 chain with D128Y, Y135A
B16: FGF21 R154Q, D155L (SEQ ID NO: 130), Q9NSA1 29-209 (ligand)
chain: B2 chain with R127Q, D128L, Y135A
B17: FGF21 H153Q, R154Q, D155N, A157V, R159K (SEQ ID NO: 132), Q9NSA1 29-209 (ligand)
chain: B2 chain with H126Q, R127Q, D128N, A130V, R132K, Y135A
B18: FGF21 R159H (SEQ ID NO: 152), Q9NSA1 29-209 (ligand)
chain: B2 chain with R132H, Y135A
B19: FGF21 D155K (SEQ ID NO: 125), Q9NSA1 29-209 (ligand)
chain: B2 chain with D128K, Y135A
B20: FGF21 S200M (SEQ ID NO: 153), Q9NSA1 29-209 (ligand)
chain: B2 chain with Y135A, S173M
B21: FGF21 P158H, R159H (SEQ ID NO: 142), Q9NSA1 29-209 (ligand)
chain: B2 chain with P131H, R132H, Y135A
B22: FGF21 H153Y, R154K, D155N, P156K, A157G (SEQ ID NO: 134), Q9NSA1 29-209 (ligand)
chain: B2 chain with H126Y, R127K, D128N, P129K, A130G, Y135A
B23: FGF21 P152-H153 deleted (SEQ ID NO: 135), Q9NSA1 29-209 (ligand)
chain: GHPIPDSSPLLQFGGQVRQRYLYTDDAQQTEAHLEIREDGTVGGAADQSPESLLQLKALKPGVIQILGVKTSRFLCQRPDGALYGSLHFDPEACSFRELLLEDGYNVYQSEAHGLPLHLPGNKSRDPAPRGPARFLPLPGLPPAPPEPPGILAPQPPDVGSSDPLSMVGPSQGRSPSYAS
B24: FGF21 N149-D155 deleted and replaced by GSHSG (SEQ ID NO: 144), Q9NSA1 29-209 (ligand)
chain: B23 chain with N122G, K123S, S124H, R125S, D126G
B25: FGF21 N149-A162 deleted and replaced by GSHSG (SEQ ID NO: 137), Q9NSA1 29-209 (ligand)
chain: GHPIPDSSPLLQFGGQVRQRYLYTDDAQQTEAHLEIREDGTVGGAADQSPESLLQLKALKPGVIQILGVKTSRFLCQRPDGALYGSLHFDPEACSFRELLLEDGYNVYQSEAHGLPLHLPGGSHSGRFLPLPGLPPAPPEPPGILAPQPPDVGSSDPLSMVGPSQGRSPSYAS
B26: FGF21 N149-R163 deleted and replaced by GSGS (SEQ ID NO: 136), Q9NSA1 29-209 (ligand)
chain: GHPIPDSSPLLQFGGQVRQRYLYTDDAQQTEAHLEIREDGTVGGAADQSPESLLQLKALKPGVIQILGVKTSRFLCQRPDGALYGSLHFDPEACSFRELLLEDGYNVYQSEAHGLPLHLPGGSGSFLPLPGLPPAPPEPPGILAPQPPDVGSSDPLSMVGPSQGRSPSYAS
B27: FGF21 G202-R203 deleted (SEQ ID NO: 157), Q9NSA1 29-209 (ligand)
chain: GHPIPDSSPLLQFGGQVRQRYLYTDDAQQTEAHLEIREDGTVGGAADQSPESLLQLKALKPGVIQILGVKTSRFLCQRPDGALYGSLHFDPEACSFRELLLEDGYNVYQSEAHGLPLHLPGNKSPHRDPAPRGPARFLPLPGLPPAPPEPPGILAPQPPDVGSSDPLSMVGPSQSPSYAS
B28: FGF21 N149-D155 deleted and replaced by GSGS (SEQ ID NO: 143), Q9NSA1 29-209 (ligand)
chain: GHPIPDSSPLLQFGGQVRQRYLYTDDAQQTEAHLEIREDGTVGGAADQSPESLLQLKALKPGVIQILGVKTSRFLCQRPDGALYGSLHFDPEACSFRELLLEDGYNVYQSEAHGLPLHLPGGSGSPAPRGPARFLPLPGLPPAPPEPPGILAPQPPDVGSSDPLSMVGPSQGRSPSYAS
B29: FGF21 N149-D155 deleted and replaced by ATTS (SEQ ID NO: 145), Q9NSA1 29-209 (ligand)
chain: B28 chain with G122A, S123T, G124T
B30: FGF21, human (SEQ ID NO: 2), without N-terminal tag, Q9NSA1 29-209 (ligand)
chain: HPIPDSSPLLQFGGQVRQRYLYTDDAQQTEAHLEIREDGTVGGAADQSPESLLQLKALKPGVIQILGVKTSRFLCQRPDGALYGSLHFDPEACSFRELLLEDGYNVYQSEAHGLPLHLPGNKSPHRDPAPRGPARFLPLPGLPPAPPEPPGILAPQPPDVGSSDPLSMVGPSQGRSPSYAS
B31: FGF21 N149-A162 deleted and replaced by GSHSGS (SEQ ID NO: 138), Q9NSA1 29-209 (ligand)
chain: GHPIPDSSPLLQFGGQVRQRYLYTDDAQQTEAHLEIREDGTVGGAADQSPESLLQLKALKPGVIQILGVKTSRFLCQRPDGALYGSLHFDPEACSFRELLLEDGYNVYQSEAHGLPLHLPGGSHSGSRFLPLPGLPPAPPEPPGILAPQPPDVGSSDPLSMVGPSQGRSPSYAS

The text below walks through data of patent US20250171512A1.

Substitutions are numbered along the chain they refer to. In names and notes the source's numbering stands.

Chain of human FGFR1c together with human beta-Klotho (KLB), stably expressed on CHO Flp-In cells (human), P11362 (P11362 22-822, chain 1 of 2): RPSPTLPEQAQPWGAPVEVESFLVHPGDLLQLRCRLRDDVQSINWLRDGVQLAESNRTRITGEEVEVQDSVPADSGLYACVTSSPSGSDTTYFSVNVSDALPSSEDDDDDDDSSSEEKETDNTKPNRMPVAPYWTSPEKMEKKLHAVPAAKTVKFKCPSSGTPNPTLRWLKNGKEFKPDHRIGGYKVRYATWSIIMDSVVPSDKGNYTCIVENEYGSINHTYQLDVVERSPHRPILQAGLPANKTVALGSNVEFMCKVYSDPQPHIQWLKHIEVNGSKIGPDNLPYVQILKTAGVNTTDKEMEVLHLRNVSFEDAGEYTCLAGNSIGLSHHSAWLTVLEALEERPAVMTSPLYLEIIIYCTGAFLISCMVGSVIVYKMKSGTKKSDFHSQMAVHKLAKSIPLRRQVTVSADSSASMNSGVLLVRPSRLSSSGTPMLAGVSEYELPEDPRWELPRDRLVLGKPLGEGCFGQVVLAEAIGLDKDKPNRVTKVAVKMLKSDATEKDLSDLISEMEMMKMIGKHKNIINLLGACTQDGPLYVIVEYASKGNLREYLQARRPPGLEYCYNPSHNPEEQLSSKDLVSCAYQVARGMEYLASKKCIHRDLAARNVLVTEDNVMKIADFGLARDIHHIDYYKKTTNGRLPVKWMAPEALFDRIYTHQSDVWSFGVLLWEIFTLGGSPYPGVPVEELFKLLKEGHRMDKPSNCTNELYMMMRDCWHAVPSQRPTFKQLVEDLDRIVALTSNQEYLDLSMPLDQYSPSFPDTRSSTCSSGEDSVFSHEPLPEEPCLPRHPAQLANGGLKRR
Chain of human FGFR1c together with human beta-Klotho (KLB), stably expressed on CHO Flp-In cells (human), P11362 (Q86Z14 whole entry, chain 2 of 2, further chain): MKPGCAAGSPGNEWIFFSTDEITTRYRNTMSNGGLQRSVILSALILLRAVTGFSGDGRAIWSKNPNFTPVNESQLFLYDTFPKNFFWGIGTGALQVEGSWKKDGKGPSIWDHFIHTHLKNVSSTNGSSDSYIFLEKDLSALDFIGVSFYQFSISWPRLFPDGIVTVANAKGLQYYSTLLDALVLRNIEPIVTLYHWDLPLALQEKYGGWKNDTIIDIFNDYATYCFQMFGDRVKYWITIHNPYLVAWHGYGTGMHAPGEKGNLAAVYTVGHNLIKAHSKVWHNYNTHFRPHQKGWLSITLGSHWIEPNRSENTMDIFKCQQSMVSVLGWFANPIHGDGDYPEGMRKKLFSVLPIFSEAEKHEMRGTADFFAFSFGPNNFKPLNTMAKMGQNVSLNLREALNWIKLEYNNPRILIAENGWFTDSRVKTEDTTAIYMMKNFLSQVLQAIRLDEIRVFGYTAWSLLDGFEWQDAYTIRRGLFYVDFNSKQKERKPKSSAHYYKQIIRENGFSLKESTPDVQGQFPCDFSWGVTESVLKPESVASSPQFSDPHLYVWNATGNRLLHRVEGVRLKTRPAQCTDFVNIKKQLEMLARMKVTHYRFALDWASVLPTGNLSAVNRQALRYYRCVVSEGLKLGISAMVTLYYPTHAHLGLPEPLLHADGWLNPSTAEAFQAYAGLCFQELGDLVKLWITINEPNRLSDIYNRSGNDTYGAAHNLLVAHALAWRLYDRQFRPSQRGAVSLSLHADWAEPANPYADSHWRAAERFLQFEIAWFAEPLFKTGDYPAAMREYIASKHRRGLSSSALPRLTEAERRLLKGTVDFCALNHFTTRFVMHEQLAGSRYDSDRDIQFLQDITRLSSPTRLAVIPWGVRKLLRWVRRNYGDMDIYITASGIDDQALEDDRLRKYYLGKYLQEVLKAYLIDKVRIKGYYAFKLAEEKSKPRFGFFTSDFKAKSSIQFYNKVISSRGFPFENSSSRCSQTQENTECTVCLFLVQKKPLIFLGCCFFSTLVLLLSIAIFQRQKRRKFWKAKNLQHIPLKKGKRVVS

The test has as its target human FGFR1c together with human beta-Klotho (KLB), stably expressed on CHO Flp-In cells (human), P11362. Kind of test: cell-based or functional assay.
B1: the pERK ICW EC50 was 0.98 nmol/L.
The same measure, in the same setting: the value for B2 was 0.08 nmol/L; that for B3 was 0.11 nmol/L.
The molecule B4 registered an In-Cell Western EC50 of 0.21 nM.
Molecule B5 showed a pERK ICW EC50 of 0.39 nmol/L.
The molecule B6 registered a pERK ICW EC50 of 0.06 nmol/L.
Regarding B7, the pERK ICW EC50 is 0.08 nmol/L.
Still for that read-out and setting: the figure for B8 is 0.24 nmol/L.
In the case of B9, the pERK ICW EC50 was 0.39 nmol/L.
In turn, B10 showed a pERK ICW EC50 of 0.13 nmol/L.
The same measure, in the same setting: the value for B11 was 0.24 nmol/L; that for B12 was 0.01 nmol/L; that for B13 was 0.15 nmol/L.
Still for that read-out and setting: the value for B14 was 0.13 nmol/L; that for B15 was 0.07 nmol/L.
Still for that read-out and setting: the figure for B16 is 0.14 nmol/L; for B17 it is 0.23 nmol/L; for B18 it is 0.17 nmol/L.
In turn, B19 came in with a pERK ICW EC50 of 0.06 nmol/L.
The molecule B20 had a pERK ICW EC50 of 0.17 nmol/L.
On to B21, for which the pERK ICW EC50 came out at 0.84 nmol/L.
B22 yielded a pERK ICW EC50 of 0.05 nmol/L.
Still for that read-out and setting: the value for B23 was 0.21 nmol/L.
B24 registered a pERK ICW EC50 of 0.1 nmol/L.
Same read-out and setting: the value for B25 was 0.57 nmol/L; that for B26 was 3.69 nmol/L; that for B27 was 1.63 nmol/L.
B28 showed a pERK ICW EC50 of 0.28 nmol/L.
Still for that read-out and setting: the value for B29 was 0.02 nmol/L.
Molecule B30 returned a pERK ICW EC50 of 0.17 nmol/L, a pFGFR ICW EC50 of 4.49 nmol/L and a pFGFR ICW Emax of 146%.
B31 had a pERK ICW EC50 of 0.19 nmol/L.
